From the supplement of paper PMC10065799, “High-throughput profiling of sequence recognition by tyrosine kinases and SH2 domains using bacterial peptide display” (eLife, 2023)

What was measured:
AncSZ = experiment: phosphorylation enrichment, bacterial display (enrichment ratio); higher = better substrate or ligand; peptides without Tyr show the background
EPHB1 = EPHB1 (UniProt P54762); experiment: as above
EPHB2 = EPHB2 (UniProt P29323); experiment: as above
FGFR1 = FGFR1 (UniProt P11362); experiment: as above
Sequence of FGFR1 (P11362 whole entry, looked up): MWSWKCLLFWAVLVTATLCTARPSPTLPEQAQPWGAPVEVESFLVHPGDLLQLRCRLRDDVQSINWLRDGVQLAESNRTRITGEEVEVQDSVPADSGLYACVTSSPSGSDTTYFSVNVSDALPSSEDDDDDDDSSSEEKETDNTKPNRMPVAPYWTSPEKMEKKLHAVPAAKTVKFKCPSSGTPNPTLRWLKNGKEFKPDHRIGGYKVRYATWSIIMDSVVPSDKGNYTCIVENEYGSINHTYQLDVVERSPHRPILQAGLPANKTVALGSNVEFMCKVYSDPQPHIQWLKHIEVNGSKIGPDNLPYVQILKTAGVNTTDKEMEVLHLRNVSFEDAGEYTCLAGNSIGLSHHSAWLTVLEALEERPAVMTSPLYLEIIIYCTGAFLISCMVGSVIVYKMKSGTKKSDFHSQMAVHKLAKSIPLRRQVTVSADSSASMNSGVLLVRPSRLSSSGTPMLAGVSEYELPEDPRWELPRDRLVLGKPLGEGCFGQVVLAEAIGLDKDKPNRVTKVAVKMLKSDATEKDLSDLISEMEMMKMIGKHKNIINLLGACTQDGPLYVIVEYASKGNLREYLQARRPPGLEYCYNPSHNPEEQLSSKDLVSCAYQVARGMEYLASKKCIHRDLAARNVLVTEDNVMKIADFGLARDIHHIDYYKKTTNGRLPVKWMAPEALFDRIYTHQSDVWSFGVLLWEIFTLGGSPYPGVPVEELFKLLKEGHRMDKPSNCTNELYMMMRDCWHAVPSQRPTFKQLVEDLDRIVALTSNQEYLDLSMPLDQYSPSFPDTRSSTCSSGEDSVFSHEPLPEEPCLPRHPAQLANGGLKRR

FGFR3 = FGFR3 (UniProt P22607); experiment: as above
Sequence of FGFR3 (P22607 whole entry, looked up): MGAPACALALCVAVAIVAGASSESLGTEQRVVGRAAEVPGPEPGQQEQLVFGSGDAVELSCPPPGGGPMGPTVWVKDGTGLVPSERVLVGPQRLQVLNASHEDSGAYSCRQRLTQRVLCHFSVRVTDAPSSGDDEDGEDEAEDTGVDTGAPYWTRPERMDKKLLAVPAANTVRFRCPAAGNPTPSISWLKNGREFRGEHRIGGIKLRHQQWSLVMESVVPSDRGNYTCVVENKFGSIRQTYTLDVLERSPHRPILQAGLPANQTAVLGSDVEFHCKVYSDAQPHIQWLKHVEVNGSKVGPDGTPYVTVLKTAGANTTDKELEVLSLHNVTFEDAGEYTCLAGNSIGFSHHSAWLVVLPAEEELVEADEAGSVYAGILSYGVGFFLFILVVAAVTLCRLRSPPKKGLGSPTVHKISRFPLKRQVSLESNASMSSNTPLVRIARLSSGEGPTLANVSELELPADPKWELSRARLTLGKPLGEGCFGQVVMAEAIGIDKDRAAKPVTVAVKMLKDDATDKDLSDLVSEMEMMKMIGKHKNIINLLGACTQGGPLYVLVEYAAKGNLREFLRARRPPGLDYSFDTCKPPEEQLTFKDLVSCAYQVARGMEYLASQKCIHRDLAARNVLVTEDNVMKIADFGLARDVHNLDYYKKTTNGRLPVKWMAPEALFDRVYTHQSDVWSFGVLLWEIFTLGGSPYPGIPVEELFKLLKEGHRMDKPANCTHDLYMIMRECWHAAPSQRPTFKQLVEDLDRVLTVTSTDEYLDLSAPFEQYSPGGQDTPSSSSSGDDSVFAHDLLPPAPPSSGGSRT

Fer (mouse) = experiment: as above
Fes = Fes (UniProt P07332); experiment: as above
Sequence of Fes (P07332 whole entry, looked up): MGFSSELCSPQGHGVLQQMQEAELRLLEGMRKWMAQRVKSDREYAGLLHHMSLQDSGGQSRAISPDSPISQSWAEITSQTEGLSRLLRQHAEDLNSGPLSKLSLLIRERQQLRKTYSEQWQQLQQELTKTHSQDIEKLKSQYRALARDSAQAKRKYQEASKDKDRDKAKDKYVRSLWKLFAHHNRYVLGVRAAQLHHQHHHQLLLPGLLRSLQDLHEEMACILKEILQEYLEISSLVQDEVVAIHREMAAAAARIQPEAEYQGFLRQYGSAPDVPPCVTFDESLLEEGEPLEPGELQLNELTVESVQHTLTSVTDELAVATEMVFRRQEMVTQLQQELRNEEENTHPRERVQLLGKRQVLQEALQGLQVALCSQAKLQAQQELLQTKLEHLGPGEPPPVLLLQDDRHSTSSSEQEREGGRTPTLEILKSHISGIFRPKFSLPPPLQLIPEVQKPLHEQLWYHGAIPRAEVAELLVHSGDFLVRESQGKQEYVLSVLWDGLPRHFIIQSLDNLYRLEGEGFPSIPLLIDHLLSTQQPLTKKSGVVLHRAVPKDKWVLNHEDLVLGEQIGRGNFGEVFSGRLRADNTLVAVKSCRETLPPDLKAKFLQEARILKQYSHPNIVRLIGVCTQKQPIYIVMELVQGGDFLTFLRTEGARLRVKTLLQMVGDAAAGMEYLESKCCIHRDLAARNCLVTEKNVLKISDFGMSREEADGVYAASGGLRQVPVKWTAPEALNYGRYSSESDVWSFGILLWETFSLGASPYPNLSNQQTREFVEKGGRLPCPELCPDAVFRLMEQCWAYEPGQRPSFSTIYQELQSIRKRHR

Fyn = Fyn (UniProt P06241); experiment: as above
Sequence of Fyn (P06241 whole entry, looked up): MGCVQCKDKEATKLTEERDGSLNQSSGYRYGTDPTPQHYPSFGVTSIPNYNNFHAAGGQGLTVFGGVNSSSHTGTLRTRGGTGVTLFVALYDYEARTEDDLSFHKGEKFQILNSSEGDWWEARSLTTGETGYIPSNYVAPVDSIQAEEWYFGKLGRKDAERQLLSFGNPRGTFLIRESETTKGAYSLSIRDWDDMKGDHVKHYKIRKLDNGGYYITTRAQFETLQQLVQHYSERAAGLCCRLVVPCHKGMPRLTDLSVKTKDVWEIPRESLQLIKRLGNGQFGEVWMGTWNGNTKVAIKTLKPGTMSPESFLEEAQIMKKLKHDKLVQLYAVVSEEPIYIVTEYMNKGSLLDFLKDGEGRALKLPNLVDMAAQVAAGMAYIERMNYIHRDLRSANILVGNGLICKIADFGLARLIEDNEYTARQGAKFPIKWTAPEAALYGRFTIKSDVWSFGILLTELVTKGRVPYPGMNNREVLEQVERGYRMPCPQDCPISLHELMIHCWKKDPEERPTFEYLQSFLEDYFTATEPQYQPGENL

Hck = Hck (UniProt P08631); experiment: as above
Jak2 = Jak2 (UniProt O60674); experiment: as above
MERTK = MERTK (UniProt Q12866); experiment: as above
Sequence of MERTK (Q12866 whole entry, looked up): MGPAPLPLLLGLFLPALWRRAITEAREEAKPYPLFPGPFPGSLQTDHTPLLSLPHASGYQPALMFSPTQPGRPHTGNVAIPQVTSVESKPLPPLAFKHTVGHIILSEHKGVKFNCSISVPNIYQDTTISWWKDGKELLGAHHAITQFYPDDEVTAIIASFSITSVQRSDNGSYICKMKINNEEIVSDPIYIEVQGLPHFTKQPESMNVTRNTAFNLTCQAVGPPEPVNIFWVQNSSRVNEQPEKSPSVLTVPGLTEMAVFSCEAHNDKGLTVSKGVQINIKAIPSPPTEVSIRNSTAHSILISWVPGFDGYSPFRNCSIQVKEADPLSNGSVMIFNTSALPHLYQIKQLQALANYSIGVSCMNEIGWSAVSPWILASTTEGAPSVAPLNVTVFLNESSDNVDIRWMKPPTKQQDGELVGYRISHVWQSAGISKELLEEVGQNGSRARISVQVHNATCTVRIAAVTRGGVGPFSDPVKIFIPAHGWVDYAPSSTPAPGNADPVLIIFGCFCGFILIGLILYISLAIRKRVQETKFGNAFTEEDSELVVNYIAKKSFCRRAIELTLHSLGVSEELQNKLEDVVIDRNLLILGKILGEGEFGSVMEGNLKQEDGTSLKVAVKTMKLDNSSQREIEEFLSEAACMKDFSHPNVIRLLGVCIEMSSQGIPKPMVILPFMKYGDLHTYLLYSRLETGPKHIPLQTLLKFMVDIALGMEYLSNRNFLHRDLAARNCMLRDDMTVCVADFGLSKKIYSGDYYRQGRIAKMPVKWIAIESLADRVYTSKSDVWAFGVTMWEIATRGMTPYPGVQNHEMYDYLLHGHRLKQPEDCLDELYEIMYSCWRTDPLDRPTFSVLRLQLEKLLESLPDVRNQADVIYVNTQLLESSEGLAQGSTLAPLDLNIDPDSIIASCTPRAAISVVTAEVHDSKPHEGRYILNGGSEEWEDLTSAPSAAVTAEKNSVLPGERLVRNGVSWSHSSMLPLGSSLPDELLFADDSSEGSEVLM

c-Abl (mouse) = experiment: as above
c-Src = experiment: as above
Grb2 SH2 = Grb2 SH2 (UniProt P62993); experiment: SH2 binding enrichment of the phosphorylated peptide, bacterial display (enrichment ratio); higher = better substrate or ligand; peptides without Tyr show the background
SHP2-C SH2 = experiment: as above
c-Src SH2 = experiment: as above
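Wherever SH2 binding enrichment of the phosphorylated peptide, bacterial display is given: peptide library displayed on the E. coli surface as eCPX fusions, selected cells deep-sequenced, score is each peptide's frequency after selection divided by its frequency in the input.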
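Wherever phosphorylation enrichment, bacterial display is given: 11-residue human phosphosite peptides and single-mutation variants displayed on the E. coli surface, counted by deep sequencing, each peptide's frequency after selection divided by its frequency in the unselected input library; frequency after pTyr selection over input frequency; kinase dosed for 20-30% of maximal phosphorylation in three min.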

Sequence of EPHB2 (P29323 whole entry, looked up): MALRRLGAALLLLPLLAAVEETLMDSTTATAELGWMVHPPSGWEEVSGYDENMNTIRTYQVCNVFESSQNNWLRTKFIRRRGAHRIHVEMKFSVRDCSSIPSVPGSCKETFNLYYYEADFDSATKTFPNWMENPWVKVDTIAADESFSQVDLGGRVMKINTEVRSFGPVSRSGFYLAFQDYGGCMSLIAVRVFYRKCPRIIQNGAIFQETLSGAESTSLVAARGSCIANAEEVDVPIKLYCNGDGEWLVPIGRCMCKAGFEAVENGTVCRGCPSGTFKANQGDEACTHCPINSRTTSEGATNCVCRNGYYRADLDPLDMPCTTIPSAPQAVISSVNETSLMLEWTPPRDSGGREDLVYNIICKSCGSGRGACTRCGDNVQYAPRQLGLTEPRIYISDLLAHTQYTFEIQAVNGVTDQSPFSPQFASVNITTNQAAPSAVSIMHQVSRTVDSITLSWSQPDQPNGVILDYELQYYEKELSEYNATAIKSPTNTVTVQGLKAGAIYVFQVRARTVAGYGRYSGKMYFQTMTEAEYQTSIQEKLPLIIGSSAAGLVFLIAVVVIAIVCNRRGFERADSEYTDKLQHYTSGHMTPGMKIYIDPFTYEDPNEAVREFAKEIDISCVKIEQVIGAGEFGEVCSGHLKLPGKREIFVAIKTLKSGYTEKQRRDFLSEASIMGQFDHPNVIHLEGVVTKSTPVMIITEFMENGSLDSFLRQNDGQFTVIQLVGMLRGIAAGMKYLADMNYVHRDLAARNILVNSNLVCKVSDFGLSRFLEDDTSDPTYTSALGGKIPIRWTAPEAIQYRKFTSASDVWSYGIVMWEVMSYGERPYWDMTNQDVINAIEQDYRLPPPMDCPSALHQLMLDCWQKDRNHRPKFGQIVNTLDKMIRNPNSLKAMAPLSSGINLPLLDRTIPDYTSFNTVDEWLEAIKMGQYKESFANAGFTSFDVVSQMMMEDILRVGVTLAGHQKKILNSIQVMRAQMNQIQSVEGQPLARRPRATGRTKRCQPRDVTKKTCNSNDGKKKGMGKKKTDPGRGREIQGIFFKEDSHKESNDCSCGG

| Sequence | phosphorylation enrichment (AncSZ) | phosphorylation enrichment (EPHB1) | phosphorylation enrichment (EPHB2) | phosphorylation enrichment (FGFR1) | phosphorylation enrichment (FGFR3) | phosphorylation enrichment (Fer (mouse)) | phosphorylation enrichment (Fes) | phosphorylation enrichment (Fyn) | phosphorylation enrichment (Hck) | phosphorylation enrichment (Jak2) | phosphorylation enrichment (MERTK) | phosphorylation enrichment (c-Abl (mouse)) | phosphorylation enrichment (c-Src) | SH2 binding enrichment (Grb2 SH2) | SH2 binding enrichment (SHP2-C SH2) | SH2 binding enrichment (c-Src SH2) |
| --- | --- | --- | --- | --- | --- | --- | --- | --- | --- | --- | --- | --- | --- | --- | --- | --- |
| LAIEGYVVVCK [RHO_Y136_R135G] | 1.5 | 0.75 | 0.826 | 0.707 | 1.02 | 0.459 | 1.41 | 0.604 | 0.747 | 1.09 | 0.528 | 0.991 | 0.526 | 0.818 | 0.634 | 0.525 |
| KQQEIYQEVTQ [CD209_Y239_L242V] | 1.26 | 7.2 | 4.5 | 2.56 | 1.96 | 7.32 | 0.942 | 5.17 | 5.41 | 0.765 | 4.06 | 1.94 | 5.15 | 0.929 | 0.785 | 0.513 |
| RLIEGYTGPFK [ZNF862_Y181] | 1.59 | 1.07 | 0.927 | 1.13 | 1.29 | 1.21 | 1.75 | 1.1 | 1.3 | 1.79 | 1.23 | 1.12 | 1.29 | 0.808 | 0.862 | 0.472 |
| LVQAEYWRDPI [PPT1_Y185_H187R] | 1.55 | 0.891 | 0.931 | 1.71 | 1.22 | 0.693 | 1.72 | 0.961 | 0.423 | 1.46 | 0.614 | 0.816 | 0.691 | 0.818 | 1.14 | 0.914 |
| FVSIVYSDSGE [TSC2_Y1650_N1651S] | 0.766 | 0.439 | 0.582 | 0.444 | 0.717 | 0.403 | 1.16 | 0.506 | 0.532 | 0.952 | 0.37 | 0.529 | 0.591 | 0.928 | 0.967 | 0.83 |
| DRLASYSDKVR [KRT10_Y160_L161S] | 0.578 | 0.366 | 0.365 | 0.454 | 0.419 | 0.322 | 0.553 | 0.41 | 0.387 | 0.503 | 0.43 | 0.42 | 0.445 | 1.04 | 0.667 | 0.521 |
| HYMELYDLNRD [BBS2_Y648_R643H] | 1.5 | 2.98 | 1.45 | 3.57 | 2.94 | 1.28 | 1.22 | 2.58 | 2.89 | 1.22 | 4.26 | 0.862 | 6.4 | 1.07 | 1.33 | 2.44 |
| SENPKCPEVGD [TMEM43_Y233_Y233C] | 0.971 | 0.492 | 0.49 | 0.487 | 0.595 | 0.467 | 1.08 | 0.441 | 0.487 | 0.807 | 0.461 | 1.24 | 0.471 | 0.959 | 0.922 | 0.682 |
| WKGSWYSMKKM [FGB_Y475_R478K] | 0.736 | 0.645 | 0.506 | 0.488 | 0.553 | 0.353 | 0.918 | 0.488 | 0.437 | 0.859 | 0.362 | 0.533 | 0.373 | 1.3 | 1.37 | 1.19 |
| LILENYGADID [DNAH5_Y596] | 1.84 | 1.11 | 0.856 | 0.935 | 1.32 | 0.809 | 1.4 | 0.883 | 0.889 | 1.25 | 0.574 | 0.841 | 0.56 | 0.939 | 0.685 | 0.669 |
| YCGYSYDDIPD [TMEM230_Y112_R108C] | 2.47 | 0.818 | 0.954 | 1.53 | 1.57 | 1.95 | 1.34 | 0.932 | 0.799 | 1.36 | 1.03 | 0.926 | 1.75 | 0.988 | 1.43 | 10.6 |
| SFCFRYRCAAW [SUMF1_Y344_R349W_YF] | 0.933 | 0.473 | 0.465 | 0.501 | 0.613 | 0.454 | 0.829 | 0.41 | 0.442 | 0.638 | 0.449 | 0.45 | 0.363 | 2.09 | 1.58 | 1.78 |
| IRTDAYVRAMT [RPE65_Y89] | 0.515 | 0.438 | 0.458 | 0.444 | 0.482 | 0.398 | 0.605 | 0.463 | 0.414 | 0.481 | 0.402 | 0.522 | 0.382 | 0.761 | 0.527 | 0.467 |
| AFPVSYSSPGA [RET_Y687_S690P] | 0.704 | 0.442 | 0.478 | 0.423 | 0.466 | 0.468 | 0.616 | 0.518 | 0.422 | 0.508 | 0.512 | 0.572 | 0.475 | 0.685 | 0.679 | 0.615 |
| FSLIHYARIVD [MYH7_Y582_G584R] | 1.13 | 0.702 | 0.63 | 0.576 | 0.819 | 0.588 | 1.29 | 0.528 | 0.506 | 1.01 | 0.418 | 0.762 | 0.426 | 1.12 | 26.8 | 4.46 |
| EVQKNYEHLFK [PAM16_Y77] | 0.706 | 0.57 | 0.479 | 0.4 | 0.517 | 0.436 | 0.715 | 0.398 | 0.438 | 0.8 | 0.318 | 0.632 | 0.359 | 0.897 | 0.77 | 0.634 |
